# Experimental data taken from US20220119534A1 (DRAGONFLY THERAPEUTICS, published 2022).
# T1: Human CLEC12A-His (human, UniProt Q5QGZ9 65-265)
# T1 construct: Recombinant soluble protein made in house (Dragonfly Tx); The hCLEC12A spot of the HuProt array is written under this molecule as well; also called hCLEC12A-His; hCLEC12A; not shown: His tag
# T1 sequence: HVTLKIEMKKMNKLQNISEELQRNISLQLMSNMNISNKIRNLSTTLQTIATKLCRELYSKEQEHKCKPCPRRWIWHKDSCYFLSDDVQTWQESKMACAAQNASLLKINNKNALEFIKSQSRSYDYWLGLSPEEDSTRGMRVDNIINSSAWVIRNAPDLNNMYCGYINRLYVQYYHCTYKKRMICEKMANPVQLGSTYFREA
# T2: mFc-hNKG2D (human, UniProt P26718 73-216)
# T2 construct: extracellular domain; Made in house (Dragonfly Tx); the order of tag and ECD follows the name mFc-hNKG2D; also called mFc-tagged human NKG2D; not shown: mouse Fc tag
# T2 sequence (looked up): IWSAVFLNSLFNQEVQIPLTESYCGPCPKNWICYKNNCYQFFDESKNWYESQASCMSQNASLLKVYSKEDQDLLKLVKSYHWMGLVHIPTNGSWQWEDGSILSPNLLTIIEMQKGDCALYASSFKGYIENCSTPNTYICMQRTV
# Experiments:
# [1] = target: T1, Human CLEC12A-His; assay: SPR Biacore 8K 37 C; TriNKET captured on anti-hFc chip, hCLEC12A-His as analyte; 1:1 fit; pH 5.0 control, n=2
# [2] = target: T2, mFc-hNKG2D; assay: SPR Biacore 8K 37 C; mFc-hNKG2D captured on anti-mFc chip, TriNKET as analyte; 1:1 kinetic fit; control sample, n=2
# Experimental: (§1) Association was monitored for 60 seconds and dissociation was monitored for 60 seconds. Surfaces were regenerated between cycles with three pulses of 10 mM glycine-HCl, pH 1.7 injected for 20 seconds at 100 μL/min. HBS-EP+ (1×) buffer was used throughout the experiment. Data were analyzed using Biacore 8K Insight evaluation software (GE Healthcare).
# [3] = target: T2, mFc-hNKG2D; assay: SPR Biacore 8K 37 C; mFc-hNKG2D captured on anti-mFc chip, TriNKET as analyte; 1:1 kinetic fit; after 4 wks 40 C in phosphate/citrate/NaCl pH 7.8, n=2
# Experimental: as §1
binder,measurement,setting,value
"F3'-1602 TriNKET (bispecific antibody, human IgG1, kappa, Trispecific F3' format: CLEC12A scFv-Fc paired with NKG2D Fab-Fc; Stressed and control samples of the stability studies are the same molecule; also called AB0237) QLQLQESGPGLVKPSETLSLTCTVSGFSLTNYGLHWIRQPPGKCLEWIGVIWSGGKTDYNPSLKSRVTISKDTSKNQFSLKLSSVQAADTAVYYCAKYDYDDSLDYWGQGTLVTVSSGGGGSGGGGSGGGGSGGGGSDIQMTQSPSSLSASVGDRVTITCHASQNINFWLSWYQQKPGKAPKLLIYEASNLHTGVPSRFSGSGSGTRFTLTISSLQPEDIATYYCQQSHSYPLTFGCGTKLEIKGSDKTHTCPPCPAPELLGGPSVFLFPPKPKDTLMISRTPEVTCVVVDVSHEDPEVKFNWYVDGVEVHNAKTKPREEQYNSTYRVVSVLTVLHQDWLNGKEYKCKVSNKALPAPIEKTISKAKGQPREPRVYTLPPCRDELTKNQVSLTCLVKGFYPSDIAVEWESNGQPENNYKTTPPVLVSDGSFTLYSKLTVDKSRWQQGNVFSCSVMHEALHNHYTQKSLSLSPG heavy: EVQLVESGGGLVKPGGSLRLSCAASGFTFSSYSMNWVRQAPGKGLEWVSSISSSSSYIYYADSVKGRFTISRDNAKNSLYLQMNSLRAEDTAVYYCARGAPIGAAAGWFDPWGQGTLVTVSSASTKGPSVFPLAPSSKSTSGGTAALGCLVKDYFPEPVTVSWNSGALTSGVHTFPAVLQSSGLYSLSSVVTVPSSSLGTQTYICNVNHKPSNTKVDKKVEPKSCDKTHTCPPCPAPELLGGPSVFLFPPKPKDTLMISRTPEVTCVVVDVSHEDPEVKFNWYVDGVEVHNAKTKPREEQYNSTYRVVSVLTVLHQDWLNGKEYKCKVSNKALPAPIEKTISKAKGQPREPQVCTLPPSRDELTENQVSLTCLVKGFYPSDIAVEWESNGQPENNYKTTPPVLDSDGSFFLYSWLTVDKSRWQQGNVFSCSVMHEALHNHYTQKSLSLSPG light: DIQMTQSPSSVSASVGDRVTITCRASQGISSWLAWYQQKPGKAPKLLIYAASSLQSGVPSRFSGSGSGTDFTLTISSLQPEDFATYYCQQGVSFPRTFGGGTKVEIKRTVAAPSVFIFPPSDEQLKSGTASVVCLLNNFYPREAKVQWKVDNALQSGNSQESVTEQDSKDSTYSLSSTLTLSKADYEKHKVYACEVTHQGLSSPVTKSFNRGEC",Kd,[1],1.07 nM
same,koff,[1],0.000853 s⁻¹
same,kon,[1],799000 M⁻¹ s⁻¹
same,Kd,[2],790 nM
same,koff,[2],0.153 s⁻¹
same,kon,[2],193000 M⁻¹ s⁻¹
same,Kd,[3],869 nM
same,koff,[3],0.133 s⁻¹
same,kon,[3],153000 M⁻¹ s⁻¹
